We go through one molecule from US20100273979A1 (Affibody, published 2010).

This assay addresses T1, rat serum albumin (rat, UniProt P02770 25-608).
T1 construct: Control coat in the screening ELISA; also called RSA
The assay is described as follows: method not stated (unpublished results); unpublished results; method and construct not stated.

T1 sequence (P02770 25-608 limits assumed): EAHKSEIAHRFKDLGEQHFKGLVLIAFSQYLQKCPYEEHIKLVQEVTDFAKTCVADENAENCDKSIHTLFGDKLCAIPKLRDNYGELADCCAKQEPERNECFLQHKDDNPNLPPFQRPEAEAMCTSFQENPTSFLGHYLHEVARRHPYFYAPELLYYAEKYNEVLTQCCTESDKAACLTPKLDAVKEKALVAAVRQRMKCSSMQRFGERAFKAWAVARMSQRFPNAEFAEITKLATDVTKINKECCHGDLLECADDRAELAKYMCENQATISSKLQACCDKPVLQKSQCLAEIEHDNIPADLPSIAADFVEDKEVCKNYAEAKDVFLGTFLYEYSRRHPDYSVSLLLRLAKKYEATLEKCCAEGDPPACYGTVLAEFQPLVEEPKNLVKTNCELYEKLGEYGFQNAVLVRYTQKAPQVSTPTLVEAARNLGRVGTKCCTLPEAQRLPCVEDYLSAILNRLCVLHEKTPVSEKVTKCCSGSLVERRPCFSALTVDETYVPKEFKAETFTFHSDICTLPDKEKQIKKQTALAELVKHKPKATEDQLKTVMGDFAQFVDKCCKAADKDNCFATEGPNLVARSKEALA

Molecule LAEAKVLANRELDKYGVSDYYKNLINNAKTVEGVKALIDEILAALP (other) [ABDwt (construct not stated; unpublished results)] had a Kd of 70 pM. This counts as picomolar.
